Residue numbers refer to the chain shown, from its start. In names and notes the source's numbering stands.
B1: CSPG5120 scFv-hG4PE(R409K) (Fc fusion)
VH: EVQLVQSGGGLVQPGGSLRLSCAASGFTFSNYWMTWVRQAPGEGPEWVANINQDGSQKYYVDSVKGRFTISRDNAKNSLNLQMNNLRAEDTALYYCAKSNAMDVWGQGTLVTVSS
VL: DIVMTQSPLSLPVTPGEPASISCRSSESLLHSNGYNYLNWYLQKPGQSPQLLIYLGSHRASGVPDRLSGSGSDTDFTLKISRVEAEDVGIYYCMQGRQTPITFGGGTKLEIK
notes: also called anti-CSPG5 scFv-Fc antibody
B2: CSPG5115 scFv-hG4PE(R409K) (Fc fusion)
VH: EVQLVQSGAEVKKPGASLKVSCKASGYSFTDYIIHWVRQAPGQSLEWMGWINGGSGVPKYSDKFQGRVTITRDTSANTAYMEIRSLGSEDTAVYYCARGGVCSGDKCYYYGMDVWGQGTTVTVSS
VL: QSVLTQPPSVSVSPGQTASITCSGDKLGDKYSWWYQQKPGQSPLLVIHQDNKRPSGIPERFSGSNSGNTATLTIVGTQAMDEADYYCQAWDRGVVFGGGTKLTVL
notes: as for B1
B3: pCANTAB_CSPG5206 phage clone (scFv, V domains shown)
VH: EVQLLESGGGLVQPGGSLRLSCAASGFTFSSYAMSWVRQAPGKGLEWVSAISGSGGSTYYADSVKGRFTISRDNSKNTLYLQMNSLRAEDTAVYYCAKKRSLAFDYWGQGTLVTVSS
VL: QSALTQPASVSGSPGQSITISCTGTSTDVNGYNYVSWYQQYAGKAPKLIIFDVSKRPSGVSNRFSGSKSGDTASLTISGLQAEDEADYHCSSYNRKRPPVLFGGGTKLTVL
notes: also called CSPG5206 scFv on phage
B4: pCANTAB_CSPG5201 phage clone (scFv, V domains shown)
VH: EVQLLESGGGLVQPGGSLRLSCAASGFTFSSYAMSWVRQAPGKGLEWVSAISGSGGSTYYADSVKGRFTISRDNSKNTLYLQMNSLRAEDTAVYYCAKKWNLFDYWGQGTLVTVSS
VL: B3 VL with N94R, K96L, P98L
notes: also called CSPG5201 scFv on phage
B5: pCANTAB_CSPG5207 phage clone (scFv, V domains shown)
VH: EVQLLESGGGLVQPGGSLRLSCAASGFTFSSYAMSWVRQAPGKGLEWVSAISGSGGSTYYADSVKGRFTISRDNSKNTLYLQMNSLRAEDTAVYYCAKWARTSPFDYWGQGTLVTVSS
VL: B3 VL with N94T, R95P, K96S, P98A, P99R
notes: also called CSPG5207 scFv on phage
B6: pCANTAB_CSPG5214 phage clone (scFv, V domains shown)
VH: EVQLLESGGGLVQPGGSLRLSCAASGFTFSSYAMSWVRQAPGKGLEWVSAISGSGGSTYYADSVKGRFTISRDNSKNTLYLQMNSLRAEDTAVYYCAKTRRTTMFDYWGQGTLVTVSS
VL: B3 VL with R95P, K96H, R97H, P98S, P99G
notes: also called CSPG5214 scFv on phage
B7: pCANTAB_CSPG5234 phage clone (scFv, V domains shown)
VH: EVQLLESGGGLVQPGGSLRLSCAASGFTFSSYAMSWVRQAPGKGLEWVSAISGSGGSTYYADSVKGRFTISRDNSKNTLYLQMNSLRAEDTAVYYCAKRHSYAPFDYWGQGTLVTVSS
VL: B3 VL with N94R, R95P, R97A, P98R, P99S
notes: also called CSPG5234 scFv on phage
B8: pCANTAB_CSPG5230 phage clone (scFv, V domains shown)
VH: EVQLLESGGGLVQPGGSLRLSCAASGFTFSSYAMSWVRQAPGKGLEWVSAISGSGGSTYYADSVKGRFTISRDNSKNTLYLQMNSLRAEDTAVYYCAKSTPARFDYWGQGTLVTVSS
VL: B3 VL with N94H, R95T, K96R, R97P, P98A, P99T
notes: also called CSPG5230 scFv on phage
B9: pCANTAB_CSPG5168 phage clone (scFv, V domains shown)
VH: EVQLVETGGALVQPGGSLRLSCAGSGFIFSKYEMTWVRQAPGKGLEWVSTIGSLGLKTFYTDSVKGRFTTSRDNSRDTLFLQMDNLRVEDTAIYFCVKGGIRRADYWGKGTLVTVSS
VL: EIVMTQSPATLSLSPGERATLSCRASQSVSSYLAWYQQKPGQAPRLLIYDASNRATGIPARFSGSGSGTDFTLTISSLEPEDFAVYYCQQRSNWPLTFGGGTKVEIK
notes: also called CSPG5168 scFv on phage
B10: pCANTAB_CSPG5120 phage clone (scFv, V domains shown)
VH: B1 VH
VL: B1 VL
notes: also called CSPG5120 scFv on phage
B11: pCANTAB_CSPG5115 phage clone (scFv, V domains shown)
VH: B2 VH
VL: B2 VL
notes: also called CSPG5115 scFv on phage
B12: pCANTAB_CSPG5219 phage clone (scFv, V domains shown)
VH: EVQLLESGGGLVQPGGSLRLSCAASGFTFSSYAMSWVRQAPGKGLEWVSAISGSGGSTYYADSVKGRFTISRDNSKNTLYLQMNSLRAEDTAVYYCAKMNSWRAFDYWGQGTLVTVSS
VL: EIVLTQSPGTLSLSPGERATLSCRASQSVSSSYLAWYQQKPGQAPRLLIYGASSRATGIPDRFSGSGSGTDFTLTISRLEPEDFAVYYCQQLRRKGSTFGQGSKVEIK
notes: also called CSPG5219 scFv on phage

Target: mouse CSPG5-GST (mouse)
Assay: SPR Biacore T-100, antibody captured, mouse CSPG5-GST analyte
Protocol: The affinity of the anti-CSPG5 antibodies, the CSPG5202 IgG4PE(R409K), and the AVM IgG4PE(R409K) CSPG5202 dscFv produced in Example 2 for human CSPG5 and mouse CSPG5 was measured using Biacore T-100 (GE Healthcare).
Each of the antibodies was immobilized on a […] sensor chip using a Human antibody Capture kit, and the binding ability was evaluated using human CSPG5-GST and mouse CSPG5-GST produced in Example 4 as analytes. The obtained sensorgram was analyzed with BIA evaluation software, and the dissociation constant (KD value) was calculated.

Q: Which Kd does the source give for B1 here?
A: The Kd was no more than 10 nM.

Q: For B2, which Kd is on record?
A: Its Kd is no more than 10 nM.

Target: T1, mouse CSPG5 (mouse, UniProt Q71M36 31-566)
T1 construct: Full-length gene expressed on Expi293F cells; also called mouse CSPG5/Expi293F cells
T1 sequence: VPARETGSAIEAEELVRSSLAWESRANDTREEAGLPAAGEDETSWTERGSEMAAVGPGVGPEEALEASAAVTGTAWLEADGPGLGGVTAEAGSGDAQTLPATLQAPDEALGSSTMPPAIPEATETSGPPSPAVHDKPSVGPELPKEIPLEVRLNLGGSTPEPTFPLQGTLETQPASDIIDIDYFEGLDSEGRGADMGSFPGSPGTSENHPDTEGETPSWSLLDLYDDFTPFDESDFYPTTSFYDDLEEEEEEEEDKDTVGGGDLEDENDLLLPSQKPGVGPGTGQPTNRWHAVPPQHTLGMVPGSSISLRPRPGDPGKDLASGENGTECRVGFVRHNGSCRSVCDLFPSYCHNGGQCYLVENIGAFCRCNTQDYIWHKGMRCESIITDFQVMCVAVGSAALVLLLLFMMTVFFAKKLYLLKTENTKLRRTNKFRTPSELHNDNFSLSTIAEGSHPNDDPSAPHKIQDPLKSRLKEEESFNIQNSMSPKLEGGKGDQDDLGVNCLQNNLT
Assay: FACS, 10 µg/mL antibody, mouse CSPG5/Expi293F vs Expi293F
Protocol: (§1) Expi293F cells, human CSPG5/Expi293F cells, mouse CSPG5/Expi293F cells, and monkey CSPG5/Expi293F cells were separately suspended in Staining Buffer (SB) of PBS comprising 0.1% NaN₃ and 1% FBS and dispensed in a round-bottom 96-well plate (manufactured by Becton, Dickinson and Company). After centrifugation (2000 rpm, 4° C., 2 minutes), the supernatant was removed, and to the resulting pellet, 10 μg/mL of each antibody obtained in Example 2 was added to suspend the pellet, and the resulting suspension was left to stand for 30 minutes at ice temperature. After further centrifugation (2000 rpm, 4° C., 2 minutes), the supernatant was removed, and the resulting pellet was washed with SB, and thereafter, 1 μg/mL of an RPE fluorescently labeled goat anti-human antibody (manufactured by Southern Biotech, Inc.) was added thereto, and the resultant was incubated for 30 minutes at ice temperature. After washing with SB, the cells were suspended in SB, and the fluorescence intensity of each cell was measured using a flow cytometer FACS CANTO II (manufactured by Becton, Dickinson and Company). Note that as a negative control, 10 μg/mL of the anti-AVM antibody was used.
(§2) The detection results were analyzed, and a mean fluorescence intensity (MFI) was calculated using a geometric mean. Further, with respect to the MFI when the concentration of each antibody was 10 μg/mL, the ratio of the MFI (mean fluorescence intensity ratio) between the human CSPG5/Expi293F cells and the Expi293F cells (parent cell line) was calculated. Also for the monkey CSPG5/Expi293F cells and the mouse CSPG5/Expi293F cells, the mean fluorescence intensity ratio relative to the Expi293F cells (parent cell line) was calculated by the same procedure, and the results are shown in Table 3.

Q: B1 was tested. Which “Mean fluorescence intensity ratio” value did it give?
A: Its value is 20.4 ratio to parent cell line.

Q: Which “Mean fluorescence intensity ratio” value does the source give for B2 here?
A: The value was 3.44 ratio to parent cell line.

Target: T2, monkey CSPG5 (monkey (rhesus monkey), UniProt O95196 31-566 (human entry))
T2 construct: Full-length gene expressed on Expi293F cells; also called monkey CSPG5/Expi293F cells; rhesus monkey CSPG5
T2 chain: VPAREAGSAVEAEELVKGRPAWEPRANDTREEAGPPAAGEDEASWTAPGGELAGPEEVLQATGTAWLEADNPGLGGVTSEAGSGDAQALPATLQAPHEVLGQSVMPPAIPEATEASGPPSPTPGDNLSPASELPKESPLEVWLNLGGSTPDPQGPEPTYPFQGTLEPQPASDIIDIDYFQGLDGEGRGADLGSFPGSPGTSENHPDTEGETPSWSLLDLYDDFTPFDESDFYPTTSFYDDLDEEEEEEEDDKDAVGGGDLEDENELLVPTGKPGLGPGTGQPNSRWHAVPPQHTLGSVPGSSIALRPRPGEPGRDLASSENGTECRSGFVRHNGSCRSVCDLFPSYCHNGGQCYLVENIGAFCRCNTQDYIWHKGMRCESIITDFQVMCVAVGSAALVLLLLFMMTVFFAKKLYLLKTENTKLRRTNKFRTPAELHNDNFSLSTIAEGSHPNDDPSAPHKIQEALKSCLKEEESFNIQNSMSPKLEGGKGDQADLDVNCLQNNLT
Assay: FACS, 10 µg/mL antibody, monkey CSPG5/Expi293F vs Expi293F
Protocol: as §1, §2

Q: B1 was tested. Which “Mean fluorescence intensity ratio” value did it give?
A: Its value is 8.01 ratio to parent cell line.

Q: Which “Mean fluorescence intensity ratio” value does the source give for B2 here?
A: Its value is 3.56 ratio to parent cell line.

Target: T3, human CSPG5 (human, UniProt O95196 31-566)
T3 construct: Full-length gene expressed on cell membrane (Expi293F, L929); also called human CSPG5/Expi293F cells; human CSPG5/L929#09
T3 sequence: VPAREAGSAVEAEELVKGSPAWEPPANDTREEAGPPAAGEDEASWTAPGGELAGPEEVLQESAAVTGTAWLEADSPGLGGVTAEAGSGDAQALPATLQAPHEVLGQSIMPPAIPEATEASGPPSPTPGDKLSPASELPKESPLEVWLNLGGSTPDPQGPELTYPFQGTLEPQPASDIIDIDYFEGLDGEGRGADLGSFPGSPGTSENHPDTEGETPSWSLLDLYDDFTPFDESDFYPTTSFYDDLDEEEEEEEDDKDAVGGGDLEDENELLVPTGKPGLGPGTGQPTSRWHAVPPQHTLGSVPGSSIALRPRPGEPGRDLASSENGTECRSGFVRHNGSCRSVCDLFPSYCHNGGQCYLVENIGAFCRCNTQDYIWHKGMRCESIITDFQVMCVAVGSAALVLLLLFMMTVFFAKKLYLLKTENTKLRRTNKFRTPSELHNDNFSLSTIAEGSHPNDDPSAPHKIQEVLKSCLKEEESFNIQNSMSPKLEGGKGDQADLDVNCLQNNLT
Assay: FACS, 10 µg/mL antibody, human CSPG5/Expi293F vs Expi293F
Protocol: as §1, §2

Q: B1 was tested. Which “Mean fluorescence intensity ratio” value did it give?
A: Its value is 18.5 ratio to parent cell line.

Q: Which “Mean fluorescence intensity ratio” value does the source give for B2 here?
A: Its value is 3.24 ratio to parent cell line.

Target: mouse CSPG5-FLAG_Fc (mouse)
Assay: phage ELISA, immobilised antigen, anti-M13-HRP
Protocol: (§3) In the ELISA, human CSPG5-FLAG_Fc and mouse CSPG5-FLAG_Fc were immobilized on MAXISORP (manufactured by NUNC, Inc.), followed by blocking using SuperBlock Blocking Buffer (manufactured by Thermo Fisher Scientific, Inc.). As a negative control, a plate on which Fc was immobilized was also prepared.
(§4) To each well, each phage clone was added and allowed to react at room temperature for 30 minutes, and thereafter, each well was washed with PBS-T. Subsequently, a solution obtained by diluting an anti-M13 antibody (manufactured by GE Healthcare, Inc.) labeled with horseradish peroxidase with PBS-T comprising 10% Block Ace (manufactured by Dainippon Pharmaceutical Co., Ltd.) was added to each well and incubated at room temperature for 30 minutes. After the microplate was washed 3 times with PBS-T, a 3,3′,5,5′-tetramethylbenzidine (TMB) chromogenic substrate solution (manufactured by DAKO, Inc.) was added thereto, followed by incubation at room temperature. The coloring reaction was stopped by adding a 0.5 mol/L sulfuric acid to each well, and an absorbance at a wavelength of 450 nm (reference wavelength: 570 nm) was measured using a microplate reader. […]

Q: Does B3 bind?
A: Result: binds

Q: Does B4 bind?
A: Result: binds

Q: Does B5 bind?
A: Result: binds

Q: Does B6 bind?
A: Result: binds

Q: Does B7 bind?
A: Result: binds

Q: Does B8 bind?
A: Result: binds

Q: Does B9 bind?
A: Result: binds

Q: Does B10 bind?
A: Result: binds

Q: Does B11 bind?
A: Result: binds

Q: Does B12 bind?
A: Result: binds

Target: human CSPG5-FLAG_Fc (human)
Assay: phage ELISA, immobilised antigen, anti-M13-HRP
Protocol: as §3, §4

Q: Does B3 bind?
A: Result: binds

Q: Does B4 bind?
A: Result: binds

Q: Does B5 bind?
A: Result: binds

Q: Does B6 bind?
A: Result: binds

Q: Does B7 bind?
A: Result: binds

Q: Does B8 bind?
A: Result: binds

Q: Does B9 bind?
A: Result: binds

Q: Does B10 bind?
A: Result: binds

Q: Does B11 bind?
A: Result: binds

Q: Does B12 bind?
A: Result: binds

Source: patent US20210269548A1 (Kyowa Kirin, published 2021)
